The chains are these.
B1: glmS ribozyme (parent)
chain: AUAAAAGCGCCAGAACUACAGAAAUGUAGUUGACGAGGAGGAGGUUUAUCGAAUUUUCGGCGGAUGCCUCCAAA

Settings in all cases: with glucosamine-6-phosphate
In data set [1] the parent is B1. Description: kcat; higher = faster cleavage; RNA array. The procedure, abridged:
(§1)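 Barcoded ribozyme variants on sequenced MiSeq chips were transcribed in situ by E. coli RNA polymerase and followed at 37 °C through a hybridised Cy3 probe. Glucosamine-6-phosphate at 40 μM to 10 mM in HEPES/KCl/Mg(OAc)2 buffer was flowed in, and tiles were imaged over ~14 h. Signals were normalised to baseline and to non-cleaving reference variants, and per-tile medians were fit to one- or two-exponential decays to give kobs. Weighted Michaelis–Menten fits across concentrations gave kcat and KM.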

In data set [2] the parent is B1. Description: self-cleavage kobs at 40 uM GlcN6P; higher = faster cleavage; RNA array. The method in brief:
as §1

Variants of B1 are the subject of data set [3]. Briefly: self-cleavage kobs at 640 uM GlcN6P; higher = faster cleavage; RNA array. The procedure, abridged: as §1
In data set [4] the parent is B1. Briefly: KM; higher = weaker cofactor use; RNA array. The procedure, abridged: as §1
Variants of B1 are the subject of data set [5]. Briefly: self-cleavage kobs at 2500 uM GlcN6P; higher = faster cleavage; RNA array. The procedure, abridged:
as §1

Variants of B1 are the subject of data set [6]. Description: self-cleavage kobs at 10000 uM GlcN6P; higher = faster cleavage; RNA array. The method in brief:
as §1

In data set [7] the parent is B1. Briefly: self-cleavage kobs at 160 uM GlcN6P; higher = faster cleavage; RNA array. The method in brief: as §1

± gives the standard error. For part of these data: Fewer inactive variants are shown than the library holds.

For G38U A48G, the kcat (commonly the maximal rate divided by the concentration of active sites) in data set [1] was less than 1e-05 s⁻¹. In addition, the “self-cleavage kobs at 40 uM GlcN6P” value in data set [2] is less than 1e-05 s⁻¹. Also, in data set [3], the “self-cleavage kobs at 640 uM GlcN6P” value is less than 1e-05 s⁻¹.

With U46G C68G, in data set [1], the kcat was 0.000103 ± 4e-06 s⁻¹. For the same variant, the KM – broadly, the concentration of substrate that gives half-maximal velocity – in data set [4] was 678 ± 110 µM. For the same variant, the “self-cleavage kobs at 640 uM GlcN6P” value in data set [3] came to 5.11e-05 ± 1.8e-05 s⁻¹. Further, the “self-cleavage kobs at 2500 uM GlcN6P” value in data set [5] came out at 7.97e-05 ± 1.8e-05 s⁻¹. The “self-cleavage kobs at 10000 uM GlcN6P” value in data set [6] amounted to 9.69e-05 ± 1.7e-05 s⁻¹.

On to G63U C68A, for which, in data set [1], the kcat stood at 1.22e-05 ± 2.6e-06 s⁻¹.

For the variant C16A C50A, the kcat in data set [1] was less than 1e-05 s⁻¹.

Regarding A12U C58A, in data set [1], the turnover number (kcat) is 0.00172 ± 0.00051 s⁻¹. In data set [3], the “self-cleavage kobs at 640 uM GlcN6P” value worked out at 5.11e-05 ± 1.2e-05 s⁻¹. For the same variant, the “self-cleavage kobs at 2500 uM GlcN6P” value in data set [5] stood at 0.000149 ± 2.6e-05 s⁻¹. In addition, the “self-cleavage kobs at 10000 uM GlcN6P” value in data set [6] was 0.00051 ± 6.1e-05 s⁻¹.

As for U45C A53G, the kcat in data set [1] worked out at 0.00416 ± 0.0017 s⁻¹. The “self-cleavage kobs at 160 uM GlcN6P” value in data set [7] is 0.000134 ± 4.9e-05 s⁻¹. The “self-cleavage kobs at 640 uM GlcN6P” value in data set [3] turned out to be 0.000905 ± 0.00016 s⁻¹. Also, the “self-cleavage kobs at 2500 uM GlcN6P” value in data set [5] was 0.00188 ± 0.00042 s⁻¹. The “self-cleavage kobs at 10000 uM GlcN6P” value in data set [6] stood at 0.00291 ± 0.00074 s⁻¹.

Turning to U31C U54A, the turnover number (kcat) in data set [1] came out at 0.00685 ± 0.0022 s⁻¹. Also, the KM in data set [4] amounted to 2980 ± 1300 µM. Also, the “self-cleavage kobs at 40 uM GlcN6P” value in data set [2] was 0.000119 ± 1.5e-05 s⁻¹. Besides, the “self-cleavage kobs at 160 uM GlcN6P” value in data set [7] was 0.000268 ± 5.9e-05 s⁻¹. The “self-cleavage kobs at 640 uM GlcN6P” value in data set [3] worked out at 0.00122 ± 0.00019 s⁻¹. In addition, the “self-cleavage kobs at 2500 uM GlcN6P” value in data set [5] stood at 0.00228 ± 0.00051 s⁻¹. In addition, in data set [6], the “self-cleavage kobs at 10000 uM GlcN6P” value came to 0.006 ± 0.00078 s⁻¹.

Take G38A C70G: in data set [1], the catalytic constant (kcat) amounted to 1.82e-05 ± 1.9e-06 s⁻¹.

As for C16G C67A, the kcat in data set [1] turned out to be 0.00104 ± 0.00042 s⁻¹. The “self-cleavage kobs at 40 uM GlcN6P” value in data set [2] amounted to 3.35e-05 ± 7e-06 s⁻¹. Moreover, the “self-cleavage kobs at 640 uM GlcN6P” value in data set [3] came to 0.000169 ± 6.1e-05 s⁻¹. The “self-cleavage kobs at 2500 uM GlcN6P” value in data set [5] amounted to 0.000618 ± 0.00021 s⁻¹. Moreover, the “self-cleavage kobs at 10000 uM GlcN6P” value in data set [6] turned out to be 0.000956 ± 0.00019 s⁻¹.

Take A14G G40C: in data set [1], the kcat is 0.0146 ± 0.0059 s⁻¹. Also, the “self-cleavage kobs at 40 uM GlcN6P” value in data set [2] worked out at 0.000285 ± 5.8e-05 s⁻¹. Further, in data set [7], the “self-cleavage kobs at 160 uM GlcN6P” value came out at 0.000739 ± 0.0001 s⁻¹. Besides, in data set [3], the “self-cleavage kobs at 640 uM GlcN6P” value amounted to 0.00301 ± 0.00036 s⁻¹. Besides, the “self-cleavage kobs at 2500 uM GlcN6P” value in data set [5] amounted to 0.00549 ± 0.00094 s⁻¹. Besides, the “self-cleavage kobs at 10000 uM GlcN6P” value in data set [6] was 0.0168 ± 0.0032 s⁻¹.

As to A14G C70U C71G, the kcat in data set [1] came to 0.000213 ± 6.9e-05 s⁻¹. In data set [3], the “self-cleavage kobs at 640 uM GlcN6P” value worked out at 0.000185 ± 3.7e-05 s⁻¹. Further, the “self-cleavage kobs at 2500 uM GlcN6P” value in data set [5] was determined as 0.00039 ± 8.8e-05 s⁻¹. For the same variant, in data set [6], the “self-cleavage kobs at 10000 uM GlcN6P” value was 0.000168 ± 3.3e-05 s⁻¹.

For A33C U55C, the kcat in data set [1] is less than 1e-05 s⁻¹. Further, in data set [2], the “self-cleavage kobs at 40 uM GlcN6P” value was less than 1e-05 s⁻¹. Moreover, the “self-cleavage kobs at 160 uM GlcN6P” value in data set [7] was less than 1e-05 s⁻¹. The “self-cleavage kobs at 640 uM GlcN6P” value in data set [3] is less than 1e-05 s⁻¹.

Turning to A15U G59A, the kcat in data set [1] came to 1.53e-05 ± 4.8e-06 s⁻¹. The “self-cleavage kobs at 40 uM GlcN6P” value in data set [2] was less than 1e-05 s⁻¹.

With G13A U69G, in data set [1], the kcat is 6.29e-05 ± 1.9e-05 s⁻¹. For the same variant, in data set [7], the “self-cleavage kobs at 160 uM GlcN6P” value turned out to be 4.26e-05 ± 1.5e-05 s⁻¹. The “self-cleavage kobs at 640 uM GlcN6P” value in data set [3] came out at 7.5e-05 ± 1.3e-05 s⁻¹. The “self-cleavage kobs at 2500 uM GlcN6P” value in data set [5] was 6.99e-05 ± 1.7e-05 s⁻¹.

As to U57C C67U, the catalytic constant (kcat) in data set [1] was found to be 6.51e-05 ± 8.2e-06 s⁻¹. In addition, the “self-cleavage kobs at 640 uM GlcN6P” value in data set [3] turned out to be 3.88e-05 ± 8.6e-06 s⁻¹. Moreover, the “self-cleavage kobs at 2500 uM GlcN6P” value in data set [5] was 3.71e-05 ± 7.6e-06 s⁻¹. The “self-cleavage kobs at 10000 uM GlcN6P” value in data set [6] stood at 6.33e-05 ± 5.1e-06 s⁻¹.

Regarding C16U G29A, in data set [1], the kcat was found to be 0.0165 ± 0.0058 s⁻¹. Moreover, the “self-cleavage kobs at 40 uM GlcN6P” value in data set [2] amounted to 0.00117 ± 0.00016 s⁻¹. The “self-cleavage kobs at 160 uM GlcN6P” value in data set [7] is 0.00189 ± 0.00052 s⁻¹. Moreover, the “self-cleavage kobs at 640 uM GlcN6P” value in data set [3] was 0.0124 ± 0.0019 s⁻¹. Besides, in data set [5], the “self-cleavage kobs at 2500 uM GlcN6P” value came out at 0.0121 ± 0.0031 s⁻¹. Further, in data set [6], the “self-cleavage kobs at 10000 uM GlcN6P” value was determined as 0.0147 ± 0.0029 s⁻¹.

For the variant U57G C58U, the kcat in data set [1] was found to be 2.34e-05 ± 1.1e-05 s⁻¹. Besides, the “self-cleavage kobs at 40 uM GlcN6P” value in data set [2] was less than 1e-05 s⁻¹. In addition, the “self-cleavage kobs at 160 uM GlcN6P” value in data set [7] is less than 1e-05 s⁻¹.

As for A39U C71A, the kcat in data set [1] was determined as 0.00326 ± 0.00043 s⁻¹. The KM in data set [4] turned out to be 1880 ± 370 µM. Moreover, in data set [2], the “self-cleavage kobs at 40 uM GlcN6P” value was 6.47e-05 ± 9.1e-06 s⁻¹. In data set [7], the “self-cleavage kobs at 160 uM GlcN6P” value is 0.000353 ± 6.3e-05 s⁻¹. Further, the “self-cleavage kobs at 640 uM GlcN6P” value in data set [3] was determined as 0.000728 ± 0.00015 s⁻¹. Also, the “self-cleavage kobs at 2500 uM GlcN6P” value in data set [5] was 0.00175 ± 0.00039 s⁻¹. Further, the “self-cleavage kobs at 10000 uM GlcN6P” value in data set [6] stood at 0.0028 ± 0.00031 s⁻¹.

Source of the values: the supplement of paper PMC7125110.
